Data on two substances can be found in PMC5035592.

For experiment [1], the target named is equine collagen (Horm), a mixture of 95 % collagen type I and 5 % type III (equine). Put plainly: VWF collagen binding assay.
The target of experiment [2] is platelet glycoprotein Ib alpha (UniProt P07359). Kind of experiment: VWF:GPIb binding assay.

With “recombinant wild type von Willebrand factor (from UniProt P04275-1 764-2813) (natural protein)”, the ratio of VWF:CB to VWF:Ag in medium (in relation to rwtVWF) in experiment [1] came to 1. Also, in experiment [2], the VWF:GPIbα binding (in relation to rwtVWF) stood at 1 and the ratio of VWF:GPIbα binding to VWF:Ag in medium (in relation to rwtVWF) came out at 1.

With “plasma von Willebrand factor of a normal person (from UniProt P04275-1 764-2813) (natural protein)”, the ratio of VWF:GPIbα binding to VWF:Ag in experiment [2] was 1.06.
